± gives the standard deviation of the averaged measurements.
B1: library; a variant is named by its letters at N, in order (parent)
chain: GCUGUCACCGAGAAACUGUGAAGUAUAUCUUAAACCUGGGCACUUAAAAGAUAUAUGGAGUUAGUAGUGCAACCUGCUCGGUCUGAUGAGUCCNNNNNNGGACGAAACAGC

Legend:
cyclic di-GMP [1] = variants of: B1; assay: normalized RNA/DNA level without ligand (relative to sTRSVctl = 100) (log10 (% of sTRSVctl)); HEK293T; ligand: cyclic di-GMP (c-di-GMP-II aptamer); higher = less ribozyme self-cleavage, higher mRNA level; conditions: reporter: mCherry (pCS4076), ligand present: no
In short: (§1)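 For each 6-well well, 4 µg of library plasmid encoding mCherry-linked ribozyme switches, or eGFP-linked ones in some ligand experiments, was transfected into HEK293T. Any ligand was added 1 h before transfection, and RNA was extracted with EDTA 72 h after it, then reverse-transcribed, amplified, barcoded and sequenced. RNA level was obtained by dividing RNA reads by DNA reads, normalizing to a spiked-in non-cleaving sequence or to the top sequences, then scaling and log-transforming. The top set was 25 sequences, scaling was ×100 with log10, and ≥100 DNA reads were required.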

cyclic di-GMP [2] = variants of: B1; assay: normalized RNA/DNA level with ligand (relative to sTRSVctl = 100) (log10 (% of sTRSVctl)); HEK293T; ligand: cyclic di-GMP (c-di-GMP-II aptamer); ligand concentration (+) RNA-Seq: 1 mM; higher = less ribozyme self-cleavage, higher mRNA level; conditions: reporter: mCherry (pCS4076), ligand present: yes
In short: as §1

Row | Variant | normalized RNA/DNA level without ligand (log10) (cyclic di-GMP [1]) | normalized RNA/DNA level with ligand (log10) (cyclic di-GMP [2])
1 | GCUGUCACCGAGAAACUGUGAAGUAUAUCUUAAACCUGGGCACUUAAAAGAUAUAUGGAGUUAGUAGUGCAACCUGCUCGGUCUGAUGAGUCCGUUGAAGGACGAAACAGC [GUUGAA] | 1.44 ± 0.083 | 1.65 ± 0.12
2 | GCUGUCACCGAGAAACUGUGAAGUAUAUCUUAAACCUGGGCACUUAAAAGAUAUAUGGAGUUAGUAGUGCAACCUGCUCGGUCUGAUGAGUCCGCAGUGGGACGAAACAGC [GCAGUG] | 1.736 ± 0.0028 | 1.78 ± 0.11
3 | GCUGUCACCGAGAAACUGUGAAGUAUAUCUUAAACCUGGGCACUUAAAAGAUAUAUGGAGUUAGUAGUGCAACCUGCUCGGUCUGAUGAGUCCCACAUGGGACGAAACAGC [CACAUG] | 1.717 ± 0.01 | 1.84 ± 0.095
4 | GCUGUCACCGAGAAACUGUGAAGUAUAUCUUAAACCUGGGCACUUAAAAGAUAUAUGGAGUUAGUAGUGCAACCUGCUCGGUCUGAUGAGUCCAGCUGAGGACGAAACAGC [AGCUGA] | 1.58 ± 0.16 | 1.72 ± 0.067
5 | GCUGUCACCGAGAAACUGUGAAGUAUAUCUUAAACCUGGGCACUUAAAAGAUAUAUGGAGUUAGUAGUGCAACCUGCUCGGUCUGAUGAGUCCGGGACAGGACGAAACAGC [GGGACA] | 1.7 ± 0.042 | 1.75 ± 0.11
6 | GCUGUCACCGAGAAACUGUGAAGUAUAUCUUAAACCUGGGCACUUAAAAGAUAUAUGGAGUUAGUAGUGCAACCUGCUCGGUCUGAUGAGUCCGCCACAGGACGAAACAGC [GCCACA] | 1.654 ± 0.016 | 1.81 ± 0.089
7 | GCUGUCACCGAGAAACUGUGAAGUAUAUCUUAAACCUGGGCACUUAAAAGAUAUAUGGAGUUAGUAGUGCAACCUGCUCGGUCUGAUGAGUCCUUCUGAGGACGAAACAGC [UUCUGA] | 1.73 ± 0.023 | 1.83 ± 0.046
8 | GCUGUCACCGAGAAACUGUGAAGUAUAUCUUAAACCUGGGCACUUAAAAGAUAUAUGGAGUUAGUAGUGCAACCUGCUCGGUCUGAUGAGUCCUAAAGGGGACGAAACAGC [UAAAGG] | 1.635 ± 0.0018 | 1.78 ± 0.088
9 | GCUGUCACCGAGAAACUGUGAAGUAUAUCUUAAACCUGGGCACUUAAAAGAUAUAUGGAGUUAGUAGUGCAACCUGCUCGGUCUGAUGAGUCCUUUUUCGGACGAAACAGC [UUUUUC] | 1.78 ± 0.052 | 1.88 ± 0.14
10 | GCUGUCACCGAGAAACUGUGAAGUAUAUCUUAAACCUGGGCACUUAAAAGAUAUAUGGAGUUAGUAGUGCAACCUGCUCGGUCUGAUGAGUCCGGCUCAGGACGAAACAGC [GGCUCA] | 1.69 ± 0.021 | 1.88 ± 0.22
11 | GCUGUCACCGAGAAACUGUGAAGUAUAUCUUAAACCUGGGCACUUAAAAGAUAUAUGGAGUUAGUAGUGCAACCUGCUCGGUCUGAUGAGUCCAUGGCGGGACGAAACAGC [AUGGCG] | 1.69 ± 0.039 | 1.83 ± 0.053
12 | GCUGUCACCGAGAAACUGUGAAGUAUAUCUUAAACCUGGGCACUUAAAAGAUAUAUGGAGUUAGUAGUGCAACCUGCUCGGUCUGAUGAGUCCCUGCAUGGACGAAACAGC [CUGCAU] | 1.6242 ± 0.0013 | 1.77 ± 0.16
13 | GCUGUCACCGAGAAACUGUGAAGUAUAUCUUAAACCUGGGCACUUAAAAGAUAUAUGGAGUUAGUAGUGCAACCUGCUCGGUCUGAUGAGUCCCACGGCGGACGAAACAGC [CACGGC] | 1.747 ± 0.0044 | 1.89 ± 0.11
14 | GCUGUCACCGAGAAACUGUGAAGUAUAUCUUAAACCUGGGCACUUAAAAGAUAUAUGGAGUUAGUAGUGCAACCUGCUCGGUCUGAUGAGUCCCCUCUGGGACGAAACAGC [CCUCUG] | 1.63 ± 0.058 | 1.81 ± 0.1
15 | GCUGUCACCGAGAAACUGUGAAGUAUAUCUUAAACCUGGGCACUUAAAAGAUAUAUGGAGUUAGUAGUGCAACCUGCUCGGUCUGAUGAGUCCUCGAAGGGACGAAACAGC [UCGAAG] | 1.52 ± 0.097 | 1.74 ± 0.058
16 | GCUGUCACCGAGAAACUGUGAAGUAUAUCUUAAACCUGGGCACUUAAAAGAUAUAUGGAGUUAGUAGUGCAACCUGCUCGGUCUGAUGAGUCCGUCCCCGGACGAAACAGC [GUCCCC] | 1.76 ± 0.029 | 1.86 ± 0.061
17 | GCUGUCACCGAGAAACUGUGAAGUAUAUCUUAAACCUGGGCACUUAAAAGAUAUAUGGAGUUAGUAGUGCAACCUGCUCGGUCUGAUGAGUCCCAUGGGGGACGAAACAGC [CAUGGG] | 1.682 ± 0.0032 | 1.84 ± 0.094
18 | GCUGUCACCGAGAAACUGUGAAGUAUAUCUUAAACCUGGGCACUUAAAAGAUAUAUGGAGUUAGUAGUGCAACCUGCUCGGUCUGAUGAGUCCAAUUUUGGACGAAACAGC [AAUUUU] | 1.73 ± 0.033 | 1.85 ± 0.12
19 | GCUGUCACCGAGAAACUGUGAAGUAUAUCUUAAACCUGGGCACUUAAAAGAUAUAUGGAGUUAGUAGUGCAACCUGCUCGGUCUGAUGAGUCCGGUCUCGGACGAAACAGC [GGUCUC] | 1.73 ± 0.075 | 1.87 ± 0.12
20 | GCUGUCACCGAGAAACUGUGAAGUAUAUCUUAAACCUGGGCACUUAAAAGAUAUAUGGAGUUAGUAGUGCAACCUGCUCGGUCUGAUGAGUCCUAUCGUGGACGAAACAGC [UAUCGU] | 1.67 ± 0.02 | 1.79 ± 0.095
21 | GCUGUCACCGAGAAACUGUGAAGUAUAUCUUAAACCUGGGCACUUAAAAGAUAUAUGGAGUUAGUAGUGCAACCUGCUCGGUCUGAUGAGUCCUGGGUCGGACGAAACAGC [UGGGUC] | 1.8 ± 0.026 | 1.93 ± 0.11
22 | GCUGUCACCGAGAAACUGUGAAGUAUAUCUUAAACCUGGGCACUUAAAAGAUAUAUGGAGUUAGUAGUGCAACCUGCUCGGUCUGAUGAGUCCGCCCAGGGACGAAACAGC [GCCCAG] | 1.9 ± 0.036 | 1.97 ± 0.095
23 | GCUGUCACCGAGAAACUGUGAAGUAUAUCUUAAACCUGGGCACUUAAAAGAUAUAUGGAGUUAGUAGUGCAACCUGCUCGGUCUGAUGAGUCCUUUCACGGACGAAACAGC [UUUCAC] | 1.73 ± 0.093 | 1.84 ± 0.14
24 | GCUGUCACCGAGAAACUGUGAAGUAUAUCUUAAACCUGGGCACUUAAAAGAUAUAUGGAGUUAGUAGUGCAACCUGCUCGGUCUGAUGAGUCCAGACAGGGACGAAACAGC [AGACAG] | 1.55 ± 0.049 | 1.75 ± 0.15
25 | GCUGUCACCGAGAAACUGUGAAGUAUAUCUUAAACCUGGGCACUUAAAAGAUAUAUGGAGUUAGUAGUGCAACCUGCUCGGUCUGAUGAGUCCUUCCACGGACGAAACAGC [UUCCAC] | 1.7863 ± 0.00044 | 1.88 ± 0.13
26 | GCUGUCACCGAGAAACUGUGAAGUAUAUCUUAAACCUGGGCACUUAAAAGAUAUAUGGAGUUAGUAGUGCAACCUGCUCGGUCUGAUGAGUCCCAUGCGGGACGAAACAGC [CAUGCG] | 1.81 ± 0.029 | 1.9 ± 0.14

From the supplement of paper PMC6757056
